From patent publication US20240069033A1, “METHOD FOR SCREENING FOR CANDIDATE MOLECULE CAPABLE OF FORMING COMPLEX IN CONJUNCTION WITH PLURALITY OF TARGET MOLECULES” (Chugai Seiyaku Kabushiki Kaisha, priority 2020, published 2024)
No end group written: not given here.

Columns and labels:
splitNanoluc1-8 = target: T1, splitNanoluc1-8 (Oplophorus gracilirostris, UniProt Q9GV45, A31E/A60N/A81I/D135N/F58L/F95D/G42A/G62A/G78A/G94A/G98A/H120P/I103V/I117V/I134L/K70R/L54V/L73R/L99Q/M102E/N171T/P142E/Q151K/Q38E/Q45L/V71I/Y165I); assay: Complementation assay of split Nanoluc using mRNA display (pull-down with biotinylated splitNanoluc1-8, qPCR); format: binding; settings: for Recovered nucleic acid amount (molecules): 33 nM Display molecule + 1 μM biotinylated splitNanoluc1-8, room temperature 1 hour, streptavidin pull-down, TEV elution, qPCR; for Recovery rate (%): apparent recovery rate corrected with display efficiency; for Apparent recovery rate (%): recovered/input nucleic acid amount
T1 construct: made in house
Experimental: Thus, each binding ability of splitNanoluc-9 (SEQ ID NO: 66), splitNanoluc-10 (SEQ ID NO: 67), and splitNanoluc9-10 fusion peptide (SEQ ID NO: 65) to splitNanoluc1-8 (SEQ ID NO: 85) was evaluated.
Display molecules in which mRNA and a peptide are linked were prepared, and the recovery rate with biotinylated splitNanoluc1-8 was examined.

[1] = tested on: anti-ubiquitin antibodies (Mouse IgG1 monoclonal antibody; clone name FK2); assay: Complementation assay of splitUbiquitin using mRNA display (anti-ubiquitin antibody beads, qPCR); format: binding
Description: As described above, screening a library for a candidate molecule capable of forming a complex with a plurality of target molecules requires a system that suppresses the recovery rate of a test molecule that forms a complex with only one target molecule. […] Ubiquitin I13A variants were used in the experiment. In this Example, the ubiquitin N-terminal fragment to which a GS linker is attached at the C-terminus is referred to as splitUb(N), the ubiquitin C-terminal fragment to which a GS linker is attached at the C-terminus is referred to as splitUb(C), and the protein in which splitUb(N) and splitUb(C) are linked by a GSGS linker and to which a GS linker is attached at the C-terminus is referred to as splitUb(N-C).
To simultaneously evaluate the interactions of the ubiquitin N-terminal fragment and the C-terminal fragment when they are independent, the conditions of mixing the display molecule of splitUb(N) and the display molecule of splitUb(C) at 1: 1 were reacted in the same way.

T1 sequence (Q9GV45 other isoform, or with tags, fused parts or gaps with the stated changes): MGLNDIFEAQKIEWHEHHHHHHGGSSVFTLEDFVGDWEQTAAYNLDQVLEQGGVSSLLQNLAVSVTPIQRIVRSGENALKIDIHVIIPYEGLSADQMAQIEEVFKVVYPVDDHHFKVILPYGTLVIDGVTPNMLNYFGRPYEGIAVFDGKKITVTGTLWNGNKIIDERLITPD

Row | Substance | Recovered nucleic acid amount (molecules) (splitNanoluc1-8) | Recovery rate (%) (splitNanoluc1-8) | Apparent recovery rate (%) (splitNanoluc1-8) | Recovered nucleic acid amount (molecules) ([1]; anti-ubiquitin antibody (FK2) magnetic beads, room temperature 1 hour, qPCR) | Recovery rate (%) ([1]; apparent recovery rate corrected with display efficiency) | Apparent recovery rate (%) ([1]; recovered/input nucleic acid amount)
1 | splitNanoluc9-10: mRNA Display molecule of Nanoluc 9th and 10th strands linked by GS linker, with TEV sequence (SEQ ID NO: 65) (MGSMLFRVTINSGGGSGGGGSGVSGWRLFKKISGSGSGSGSENLYFQGKK; also: mRNA display conjugate) | 3.45E+09 | 33.155 | 12.632 |  |  | 
2 | splitNanoluc-9: mRNA Display molecule of Nanoluc 9th strand with GS linker and TEV sequence (SEQ ID NO: 66) (MGSMLFRVTINSGSGSGSGSENLYFQGKK; also: mRNA display conjugate) | 2.53E+06 | 0.049 | 0.008 |  |  | 
3 | splitNanoluc-10: mRNA Display molecule of Nanoluc 10th strand with GS linker and TEV sequence (SEQ ID NO: 67) (MVSGWRLFKKISGSGSGSGSENLYFQGKK; also: mRNA display conjugate) | 5.04E+06 | 0.016 | 0.011 |  |  | 
4 | splitUb (N): mRNA Display molecule of ubiquitin (I13A) N-terminal fragment with GS linker (SEQ ID NO: 45) (MMQIFVKTLTGKTATLEVEPSDTIENVKAKIQDKEGIPGSGSGSGSKK; also: mRNA display linkage) |  |  |  | 1.63E+10 | 1.040 | 0.931
